In patent publication US10077295B2, “Glycoproteins having lipid mobilizing properties and therapeutic uses thereof” (Aston University, priority 2010, dated 2018):
Marks after values point to notes of the source that are not given here.

Legend:
[1] = tested on: male Wistar rats; experiment: mature male Wistar rats, daily i.v. ZAG for 10 days: body weight, body composition, plasma metabolites; format: in vivo, rat
Experimental: Animal—Rats. Mature male Wistar rats (one year old from our own colony) weighing 540±82.5 g were housed individually and treated once daily i.v., with either ZAG in PBS (100 μl) (50 μg per 100 g body weight), or with PBS (100 μl) as a control. Both food and water intake and body weight were measured daily. Animals were given free access to food (Special Diet Services, Essex, UK) and water ad libitum. The animal experiment was carried out under the welfare conditions imposed by the British Home Office. After 10 days treatment the animals were terminated and the body composition determined. Animals were heated to 80-90° C. for 7 days until constant weight was achieved. The water content was then determined from the difference between the wet and dry weight. Lipids were extracted from the dry carcass using a sequence of chloroform:methanol (1:1), ethanol/acetone (1:1) and diethyl ether (120 ml of each) as described by Lundholm et al (14). The solvents were evaporated and the fat weighed. The non-fat carcass mass was calculated as the difference between the initial weight of the carcass and the weight of water and fat.
(§1) Serum Metabolite Determinations. Non-esterified fatty acids (NEFA) were determined using a Wako-ASC-ACOD kit (Wako Chemical GmbH, Neuss, Germany). Triglycerides were determined using a Triglyceride kit (Sigma Chemical Co., Poole, United Kingdom) and 3-hydroxybutyrate by a quantitative enzymatic determination kit (Sigma). Glucose was measured using a glucose analyser (Beckman, Irvine, Calif.) and glycerol was determined enzymatically using the method of Wieland as described in “Methods of Enzymatic Analysis” (Ed. Bergmeyer, H. U.) Vol. 3, pp1404-1409, published by Academic Press, London (1974).

[2] = tested on: ob/ob mice; experiment: ob/ob mice administered ZAG i.v. for 5 days (120 h): body weight, temperature, plasma metabolites, tissue weights; format: in vivo, mouse
Experimental: Animals—Mice. Homozygous obese (ob/ob) mice from the colony maintained at Aston University were used in the present study. The origin and characteristics of Aston ob/ob mice have been previously described. Male mice (20-21 weeks old, weight 90-100 g) were grouped into three per cage in an air conditioned room at 22±2° C. with a 12 h-light:12 h-dark cycle and fed a rat and mouse breeding diet (Special Diet Services, Witham, UK) and tap water ad libitum. They were administered ZAG (35 μg) in PBS (100 μl) b.d. by i.v. administration and body weight and food and water intake were monitored daily. Control mice received PBS alone. Body temperature was measured daily by the use of a rectal thermometer (RS Components, Northants, UK). All animal experiments were carried out in accordance with the U.K. Animals (Scientific Procedures) Act 1986.
as §1

[3] = target: β3-AR (Homo sapiens, UniProt P13945); experiment: [125I] ZAG binding to crude membranes of CHO-K1 β3 cells; parameters: host or cells: CHO-K1
β3-AR, sequence (P13945 whole entry): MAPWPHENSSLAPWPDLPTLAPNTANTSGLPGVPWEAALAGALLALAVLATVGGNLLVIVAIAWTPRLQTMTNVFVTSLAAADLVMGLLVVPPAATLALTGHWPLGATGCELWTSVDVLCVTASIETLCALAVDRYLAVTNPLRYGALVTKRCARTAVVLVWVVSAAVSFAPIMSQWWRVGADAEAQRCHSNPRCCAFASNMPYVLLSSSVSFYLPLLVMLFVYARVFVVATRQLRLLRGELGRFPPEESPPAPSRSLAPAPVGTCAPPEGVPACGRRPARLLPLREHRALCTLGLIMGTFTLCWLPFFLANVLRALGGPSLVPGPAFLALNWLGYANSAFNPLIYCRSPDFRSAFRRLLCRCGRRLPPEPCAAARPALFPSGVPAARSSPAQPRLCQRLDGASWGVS
Experimental: [^125I] labelling of ZAG. One iodo bead that had been washed and dried was incubated with Na [^125I] (1 mCi per 100 μg protein) for 5 min in PBS, then ZAG (100 μg protein) was added and left for a further 15 min. The reaction was terminated by removal of the iodo bead, while free Na [^125I] was removed using a Sephadex G25 column eluted with 0.1MNaI. The [^125I] ZAG was concentrated against PBS using a Microcon microconcentrator with a filter cut-off of Mr 10,000. The specific activity of the [^125I] ZAG was 8 Cimg protein^1.
For binding studies cells were sonicated in 2 mM Tris HCl, pH7.5, containing […] and crude total membranes were pelleted by centrifugation (13,000 g; 15 min) at 4° C. Binding studies were carried out at 37° C. by incubating membranes (500 μg protein) in 0.4 ml 50 mM Tris HCl, pH 7.5, containing 0.5 mM MgCl2 for 60 min with various concentrations of [^125I] ZAG (3,000 to 15,000 cpm) in the absence or presence of 100 μM non-labelled ZAG. The membranes were then precipitated by centrifugation at 13000 g for 20 min, the supernatant was removed and the [^125I] bound to the pellet was quantitated using a Packard Corbra Model 5005 Auto-gamma counter. Binding was analysed using non-linear regression analysis (GraphPad Prism, Version 5.04). Specific binding was regarded as the amount of labelled ZAG displaced by non-radioactive ZAG.

[4] = tested on: rat epididymal adipocytes; experiment: Lipolytic activity in rat adipocytes; format: cell-based; conditions: concentrations between 233 and 700 nM
Experimental: Lipolytic Activity in Rat Adipocytes—White adipocytes were prepared from finely minced epididymal adipose tissue of male Wistar rats (400 g) using collagenase digestion, as described (Beck S A, et al. Production of lipolytic and proteolytic factors by a murine tumor-producing cachexia in the host. Cancer Res 47:5919-5923, 1987). Lipolytic activity was determined by incubating 10^5-2×10^5 adipocytes for 2 h in 1 ml Krebs-Ringer bicarbonate buffer, pH 7.2, and the extent of lipolysis was determined by measuring the glycerol released (Wieland O. Glycerol UV method. Methods of Enzymatic Analysis, edited by Bergmeyer H U. Academic Press, London, pp 1404-1409, 1974). Spontaneous glycerol release was measured by incubating adipocytes alone. Lipolytic activity was expressed as μmol glycerol released/10^5 adipocytes/2 h.

B1: ZAG: recombinant full length human zinc-α2-glycoprotein (SEQ ID NO: 1) secreted by transfected HEK293F cells; lipid mobilizing factor (protein, listed as Homo sapiens)
chain: QENQDGRYSLTYIYTGLSKHVEDVPAFQALGSLNDLQFFRYNSKDRKSQPMGLWRQVEGMEDWKEDSQLQKAREDMETLKDIVEYYNDSNGSHVLQGRFGCEIENNRSSGAFWKYYYDGKDYIEFNKEIPAWVPFDPAAQITKQKWEAEPVYVQRAKAYLEEECPATLRKYLKYSKNILDRQDPPSVVVTSHQAPGEKKKLKCLAYDFYPGKIDVHWTRAGQVQEPELRGDVLHNGNGTYQSWVVVAVPPQDTAPYSCHVQHSSLAQPLVVPWEAS
[1]; after the first administration
  time to significant elevation in body temperature: ≤ 24 h
[1]; male rats, after 10 days
  Final weight: 525 ± 1 g
  Weight change: -5 ± 1 g
[1]; rats
  elevation in body temperature: 0.4 °C
[1]; rats treated for 10 days
  Glucose (plasma): 16.2 ± 2.1^c mmol/l
  Glycerol (plasma): 450 ± 51^c umol/l
  NEFA (plasma): 0.26 ± 0.06^b mEq/l
  Trigylcerides (plasma): 1.1 ± 0.09^a mmol/l
[1]; rats, 10 days
  decrease in plasma levels of NEFA: 55%
  increase in plasma glycerol concentration: 50%
  reduction of plasma levels of glucose and triglycerides: 36-37%
[1]; rats, after 10 days, 50 μg/100 g b.w. i.v. daily
  decrease in body weight: 5 g
[2]; ob/ob mice after ZAG administration
  oxygen uptake by BAT: three-fold increase
[2]; ob/ob mice treated for 120 h
  BAT weight: 0.73 ± 0.12 p < 0.01 g
  Gastrocnemius weight: 1.12 ± 0.14 p < 0.01 g
  Glucose (plasma): 20.3 ± 0.8 p < 0.01 mmol/L
  Glycerol (plasma): 429 + 36 p < 0.001 μmol/L
  Insulin (plasma): 26.3 ± 0.52 p < 0.001 ng/mL
  Insulin Pancreas: 16.3 ± 3.1 p = 0.0042 pg/g pancerase
  NEFA (plasma): 0.23 ± 0.05 p < 0.001 mEq/L
  Soleus weight: 0.80 ± 0.09 p < 0.01 g
  TG (plasma): 0.9 ± 0.1 p < 0.05 mmol/L
[2]; ob/ob mice, 35 μg i.v.
  adverse effects after administration: No adverse effects were observed
[2]; ob/ob mice, 5 days
  decrease in plasma insulin levels: 36%
[2]; ob/ob mice, Day 5 (value before the further drop)
  blood glucose: 2.03 mM
[2]; ob/ob mice, after 4 days of ZAG
  rise of body temperature: 0.4 °C
[2]; ob/ob mice, after 5 days
  weight difference between ZAG and PBS groups: 3.5 g
[3]
  Bmax at β3-AR relative to β2-AR: about three times
  Kd at β3-AR, fold lower than that of CGP12177: about 100 fold
[3]; single freeze/thaw cycle
  effect of freeze-thawing on binding to β3-AR: eliminated binding
[4]
  glycerol release from rat epididymal adipocytes: dose-related increase in glycerol release
